Patent US6607709 (CURATORS OF THE UNIVERSITY OF MISSOURI, dated 2003)
Positions of bridges follow the written chain, without caps; N, C: chain ends. Non-standard residues stand in square brackets, D forms with d. Re(V)O = rhenium(V) oxo core coordinated by cysteine thiolates and amide nitrogens

B1: ReMSH (peptide)
peptide: CEHFRWCKPV
modifications: not fully specified; N-terminal acetyl; D-Phe at position 7 (α-MSH numbering); C-terminal amide; cyclized by a Re(V)O core coordinated by the thiolate sulfurs of Cys4 and Cys10 and the amide nitrogens of Trp9 and Cys10
notes: Nonradioactive rhenium complex of APOMSH; also called rhenium α MSH analog ReMSH; ReMSH complex
B2: Cys^4,10, D-Phe^7-α-MSH4-13 (APOMSH) (peptide)
peptide: Ac-CEH[dF]RWCKPV-NH2
modifications: disulfide 1-7
SMILES: CC(=O)N[C@H]1CSSC[C@@H](C(=O)N[C@@H](CCCCN)C(=O)N2CCC[C@H]2C(=O)N[C@H](C(N)=O)C(C)C)NC(=O)[C@H](Cc2c[nH]c3ccccc23)NC(=O)[C@H](CCCNC(=N)N)NC(=O)[C@@H](Cc2ccccc2)NC(=O)[C@H](Cc2c[nH]cn2)NC(=O)[C@H](CCC(=O)O)NC1=O
notes: Synthetic cyclic α-MSH analog without metal; starting peptide for ReMSH; also called metal-free peptide
B3: ReCCMSH (peptide)
peptide: Ac-CCEH[dF]RWCKPV-NH2
modifications: bridge 1-2-8 via Re(V)O; not fully specified; printed as NAc-Cys-Cys-Glu-His-D-Phe-Arg-Trp-Cys-Lys-Pro-Val-NH2; also: Re(V)O complex via thiolates of Cys3, Cys4, Cys10 and amide N of Cys4
notes: Nonradioactive rhenium complex of the APOMSH analog with an additional N-terminal Cys (Cys3); also called ReCCMSH analog

How the values were obtained:
[1] = target: T1, α-MSH receptor on B16-F1 murine melanoma cells (murine, UniProt Q01727 1-315); test: competitive receptor binding on B16-F1 murine melanoma cells, displacement of ^125I-[Nle4, D-Phe7]-α-MSH, 4° C., 8 hours
T1 construct: whole, on cells; also called α-melanotropin (α-MSH) receptors; melanotropin receptors
T1 sequence (Q01727 whole entry): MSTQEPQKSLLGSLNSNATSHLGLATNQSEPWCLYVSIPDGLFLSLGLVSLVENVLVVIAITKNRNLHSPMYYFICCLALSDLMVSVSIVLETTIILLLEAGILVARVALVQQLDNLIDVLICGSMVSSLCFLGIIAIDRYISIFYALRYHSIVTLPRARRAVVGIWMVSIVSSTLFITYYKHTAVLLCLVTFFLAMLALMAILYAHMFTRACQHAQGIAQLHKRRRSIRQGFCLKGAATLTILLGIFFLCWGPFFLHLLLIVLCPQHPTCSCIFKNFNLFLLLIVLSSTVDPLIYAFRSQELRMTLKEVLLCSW
Experimental: (§1) Quantitative receptor binding assays were carried out following a previously described method (Siegrist W., 1988; Sahm, U. G., 1994). […] The cells were rinsed with PBS, lysed with 1 M NaOH and counted in a 1275 minigamma gamma counter from LKB Wallac.
The bioactivities of APOMSH and the ReMSH complex were assayed by measuring stimulation of melanin production by B16-F1 murine melanoma cells. The $EC50$ values for melanin synthesis by APOMSH and ReMSH were 2.6 ×10^-11 and 5.4 ×10^-10, respectively. […] Receptor binding assays were performed with APOMSH and ReMSH on B16-F1 murine melanoma cells.

[2] = target: T1, α-MSH receptor on B16-F1 murine …; test: cell-based or functional assay
[3] = target: T1, α-MSH receptor on B16-F1 murine …; test: competitive receptor binding on B16-F1 murine melanoma cells
Experimental: as §1
The ^99mTc- and ^188Re-labeled analogs of ReCCMSH were virtually inert to substitution in 10 mM Cys competition assays, while the ^99mTc- and ^188Re-labeled analogs of ReMSH were readily exchanged under the same assay conditions (Table 2). This increased stability of ReCCMSH probably resulted from the presence of an additional sulfur donor atom and from decreased backbone strain in the molecule due to the increased ring size. […] The ability of the ReCCMSH analog to stimulate melanin production was almost identical to APOMSH (Table 3).

[4] = target: T1, α-MSH receptor on B16-F1 murine …; test: cell-based or functional assay; remark: listed apart in the source

Binder | Ki [1] [nM] | fold decrease in the ability to stimulate melanin production compared to APOMSH [2] [fold] | fold decrease in receptor binding affinity compared to APOMSH [3] [fold] | EC50 (M), melanin production by B16-F1 murine melanoma cells [4] [M] | fold higher receptor binding affinity than ReMSH [3] [fold]
B1 | 66 | ~20 | ~100 | 5.4e-10 | –
B2 | 0.68 | – | – | 2.6e-11 | –
B3 | 2.9 | – | – | 3.5e-11 | ~25
